According to US20180155451A1 (published 2018):

T1: FcγRIIb extracellular domain with C-terminal His tag (human, UniProt P31994 43-217)
T1 construct: extracellular domain; expressed in FreeStyle293 cells; analyte in the Biacore assay; also called FcgRIIb; 2b; not shown: His tag at the C terminus
T1 sequence (looked up): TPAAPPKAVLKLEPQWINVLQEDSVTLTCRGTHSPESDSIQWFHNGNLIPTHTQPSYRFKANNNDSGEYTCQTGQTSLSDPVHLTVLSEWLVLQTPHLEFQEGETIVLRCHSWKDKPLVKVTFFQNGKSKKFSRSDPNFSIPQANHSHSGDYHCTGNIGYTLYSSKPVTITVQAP

B1: GpH7-A5/GpH7-B3 variant S324_20W/GpL16-k0 (antibody, human IgG1, kappa)
heavy 1: not shown
heavy 2: not shown
light: DIVMTQSPLSLPVTPGEPASISCQASESLVHSNRNTYLHWYLQKPGQSPQLLIYKVSNRFSGVPDRFSGSGSGTDFTLKISRVEAEDVGVYYCSQNTHVPPTFGQGTKVEIERTVAAPSVFIFPPSDEQLKSGTASVVCLLNNFYPREAKVQWKVDNALQSGNSQESVTEQDSKDSTYSLSSTLTLSKADYEKHKVYACEVTHQGLSSPVTKSFNRGEC
notes: mutation in one H chain only; also called He Ab S324_20W; S324W
B2: GpH7-B3 variant K326_07I/GpL16-k0 (antibody, human IgG1, kappa)
heavy: not shown
light: B1 light
notes: homodimerized; mutation in both H chains; also called Ho Ab K326_07I
B3: GpH7-B3 variant I332_14T/GpL16-k0 (antibody, human IgG1, kappa)
heavy: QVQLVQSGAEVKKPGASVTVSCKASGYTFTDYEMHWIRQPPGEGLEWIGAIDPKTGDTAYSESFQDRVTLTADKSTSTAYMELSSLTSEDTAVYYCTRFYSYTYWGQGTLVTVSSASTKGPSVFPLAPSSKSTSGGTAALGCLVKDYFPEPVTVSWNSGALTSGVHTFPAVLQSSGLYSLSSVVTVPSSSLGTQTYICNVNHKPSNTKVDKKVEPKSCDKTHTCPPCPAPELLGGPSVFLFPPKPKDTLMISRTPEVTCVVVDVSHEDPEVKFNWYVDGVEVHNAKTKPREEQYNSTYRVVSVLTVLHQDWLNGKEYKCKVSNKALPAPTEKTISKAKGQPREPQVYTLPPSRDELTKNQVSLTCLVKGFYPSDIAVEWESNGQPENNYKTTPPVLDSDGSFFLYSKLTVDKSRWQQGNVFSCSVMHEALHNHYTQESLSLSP
light: B1 light
notes: homodimerized; mutation in both H chains; label printed T332_14T, read as I332_14T; also called Ho Ab I332_14T
B4: GpH7-A5/GpH7-B3 variant S337_10E/GpL16-k0 (antibody, human IgG1, kappa)
heavy 1: not shown
heavy 2: not shown
light: B1 light
notes: mutation in one H chain only; also called He Ab S337_10E; S337E
B5: GpH7-B3 variant G236_10E/GpL16-k0 (antibody, human IgG1, kappa)
heavy: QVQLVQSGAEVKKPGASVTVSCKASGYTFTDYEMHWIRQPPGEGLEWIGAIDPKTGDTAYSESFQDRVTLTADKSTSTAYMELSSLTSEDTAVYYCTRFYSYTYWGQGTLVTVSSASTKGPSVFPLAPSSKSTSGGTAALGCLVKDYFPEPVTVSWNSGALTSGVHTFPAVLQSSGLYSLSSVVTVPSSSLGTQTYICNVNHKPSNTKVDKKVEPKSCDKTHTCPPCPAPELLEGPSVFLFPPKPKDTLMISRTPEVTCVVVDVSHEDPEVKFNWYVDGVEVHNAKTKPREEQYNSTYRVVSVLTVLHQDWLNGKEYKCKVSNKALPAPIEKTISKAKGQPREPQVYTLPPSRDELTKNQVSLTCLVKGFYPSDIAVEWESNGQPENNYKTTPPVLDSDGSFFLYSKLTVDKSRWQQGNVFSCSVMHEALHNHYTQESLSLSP
light: B1 light
notes: homodimerized; mutation in both H chains; also called Ho Ab G236_10E
B6: GpH7-B3 variant K326_14T/GpL16-k0 (antibody, human IgG1, kappa)
heavy: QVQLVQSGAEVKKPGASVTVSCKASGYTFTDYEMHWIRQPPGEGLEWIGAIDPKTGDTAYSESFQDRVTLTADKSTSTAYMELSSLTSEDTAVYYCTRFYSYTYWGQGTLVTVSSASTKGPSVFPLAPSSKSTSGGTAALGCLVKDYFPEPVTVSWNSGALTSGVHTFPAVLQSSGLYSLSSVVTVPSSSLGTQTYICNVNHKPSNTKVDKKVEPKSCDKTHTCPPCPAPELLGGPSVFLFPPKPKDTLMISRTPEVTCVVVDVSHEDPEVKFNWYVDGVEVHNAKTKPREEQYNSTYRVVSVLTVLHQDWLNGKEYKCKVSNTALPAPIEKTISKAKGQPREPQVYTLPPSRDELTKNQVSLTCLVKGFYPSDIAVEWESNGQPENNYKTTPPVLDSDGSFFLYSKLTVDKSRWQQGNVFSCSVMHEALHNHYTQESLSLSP
light: B1 light
notes: homodimerized; mutation in both H chains; also called Ho Ab K326_14T
B7: GpH7-B3 variant I332_15Y/GpL16-k0 (antibody, human IgG1, kappa)
heavy: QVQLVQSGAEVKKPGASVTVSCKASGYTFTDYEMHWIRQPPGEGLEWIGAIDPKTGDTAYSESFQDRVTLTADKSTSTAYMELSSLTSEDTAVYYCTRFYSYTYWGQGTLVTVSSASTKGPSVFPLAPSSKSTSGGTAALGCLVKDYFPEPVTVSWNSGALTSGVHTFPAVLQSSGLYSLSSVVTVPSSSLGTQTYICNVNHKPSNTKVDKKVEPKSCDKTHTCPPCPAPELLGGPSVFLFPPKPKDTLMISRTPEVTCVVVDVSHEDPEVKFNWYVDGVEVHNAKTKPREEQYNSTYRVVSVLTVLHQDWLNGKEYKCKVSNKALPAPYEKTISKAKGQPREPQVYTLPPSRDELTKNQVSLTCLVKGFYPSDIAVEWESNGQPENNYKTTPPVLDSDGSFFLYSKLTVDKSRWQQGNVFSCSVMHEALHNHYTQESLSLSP
light: B1 light
notes: homodimerized; mutation in both H chains; also called Ho Ab I332_15Y
B8: GpH7-A5/GpH7-B3 variant T335_04F/GpL16-k0 (antibody, human IgG1, kappa)
heavy 1: not shown
heavy 2: not shown
light: B1 light
notes: mutation in one H chain only; also called He Ab T335_04F; T335F
B9: GpH7-A5/GpH7-B3 variant S337_09D/GpL16-k0 (antibody, human IgG1, kappa)
heavy 1: not shown
heavy 2: not shown
light: B1 light
notes: mutation in one H chain only; also called He Ab S337_09D; S337D
B10: GpH7-A5/GpH7-B3 variant S337_08L/GpL16-k0 (antibody, human IgG1, kappa)
heavy 1: not shown
heavy 2: not shown
light: B1 light
notes: mutation in one H chain only; also called He Ab S337_08L; S337L
B11: GpH7-A5/GpH7-B3 variant S337_20W/GpL16-k0 (antibody, human IgG1, kappa)
heavy 1: not shown
heavy 2: not shown
light: B1 light
notes: mutation in one H chain only; also called He Ab S337_20W; S337W
B12: GpH7-A5/GpH7-B3 variant T335_08L/GpL16-k0 (antibody, human IgG1, kappa)
heavy 1: not shown
heavy 2: not shown
light: B1 light
notes: mutation in one H chain only; also called He Ab T335_08L; T335L
B13: GpH7-B3 variant K326_09D/GpL16-k0 (antibody, human IgG1, kappa)
heavy: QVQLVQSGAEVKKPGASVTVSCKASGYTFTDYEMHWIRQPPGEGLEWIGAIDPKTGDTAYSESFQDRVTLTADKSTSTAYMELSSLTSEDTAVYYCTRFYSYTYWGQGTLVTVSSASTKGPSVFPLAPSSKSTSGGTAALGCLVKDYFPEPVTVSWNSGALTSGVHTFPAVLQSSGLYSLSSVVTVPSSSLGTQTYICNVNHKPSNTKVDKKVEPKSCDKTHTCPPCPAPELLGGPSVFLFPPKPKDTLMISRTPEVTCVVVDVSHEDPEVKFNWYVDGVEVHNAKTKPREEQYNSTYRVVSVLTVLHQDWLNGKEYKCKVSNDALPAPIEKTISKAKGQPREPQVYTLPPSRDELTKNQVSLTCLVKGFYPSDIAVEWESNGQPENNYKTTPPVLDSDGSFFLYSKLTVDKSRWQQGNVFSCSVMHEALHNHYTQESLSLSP
light: B1 light
notes: homodimerized; mutation in both H chains; also called Ho Ab K326_09D
B14: GpH7-B3 variant K326_03V/GpL16-k0 (antibody, human IgG1, kappa)
heavy: not shown
light: B1 light
notes: homodimerized; mutation in both H chains; also called Ho Ab K326_03V
B15: GpH7-B3 variant K326_08L/GpL16-k0 (antibody, human IgG1, kappa)
heavy: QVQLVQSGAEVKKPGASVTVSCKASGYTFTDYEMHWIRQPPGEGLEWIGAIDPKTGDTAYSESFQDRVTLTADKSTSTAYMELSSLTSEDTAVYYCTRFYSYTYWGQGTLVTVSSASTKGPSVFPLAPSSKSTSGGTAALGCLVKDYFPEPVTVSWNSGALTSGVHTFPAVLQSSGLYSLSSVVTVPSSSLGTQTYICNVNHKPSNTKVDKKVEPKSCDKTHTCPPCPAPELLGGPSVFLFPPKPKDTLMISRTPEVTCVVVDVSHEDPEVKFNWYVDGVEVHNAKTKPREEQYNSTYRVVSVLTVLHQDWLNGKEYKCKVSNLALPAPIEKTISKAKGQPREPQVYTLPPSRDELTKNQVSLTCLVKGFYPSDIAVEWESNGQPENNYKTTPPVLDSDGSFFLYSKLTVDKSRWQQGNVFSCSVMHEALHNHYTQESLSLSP
light: B1 light
notes: homodimerized; mutation in both H chains; also called Ho Ab K326_08L
B16: GpH7-A5/GpH7-B3 variant S337_07I/GpL16-k0 (antibody, human IgG1, kappa)
heavy 1: not shown
heavy 2: not shown
light: B1 light
notes: mutation in one H chain only; also called He Ab S337_07I; S337I
B17: GpH7-A5/GpH7-B3 variant T335_09D/GpL16-k0 (antibody, human IgG1, kappa)
heavy 1: not shown
heavy 2: not shown
light: B1 light
notes: mutation in one H chain only; also called He Ab T335_09D; T335D
B18: GpH7-B3 variant I332_09D/GpL16-k0 (antibody, human IgG1, kappa)
heavy: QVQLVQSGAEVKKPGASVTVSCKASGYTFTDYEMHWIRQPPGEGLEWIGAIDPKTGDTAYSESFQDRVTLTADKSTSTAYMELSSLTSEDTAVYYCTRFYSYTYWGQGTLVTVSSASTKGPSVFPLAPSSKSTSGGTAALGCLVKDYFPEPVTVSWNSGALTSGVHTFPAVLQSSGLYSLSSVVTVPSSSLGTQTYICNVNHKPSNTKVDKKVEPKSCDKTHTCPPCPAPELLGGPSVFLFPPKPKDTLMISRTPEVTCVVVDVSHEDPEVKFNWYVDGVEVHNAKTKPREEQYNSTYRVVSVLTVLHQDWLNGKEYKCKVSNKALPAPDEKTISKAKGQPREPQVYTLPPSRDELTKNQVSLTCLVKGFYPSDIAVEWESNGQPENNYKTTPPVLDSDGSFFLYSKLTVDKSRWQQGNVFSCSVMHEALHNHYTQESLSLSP
light: B1 light
notes: homodimerized; mutation in both H chains; also called Ho Ab I332_09D
B19: GpH7-A5/GpH7-B3 variant T335_12R/GpL16-k0 (antibody, human IgG1, kappa)
heavy 1: not shown
heavy 2: not shown
light: B1 light
notes: mutation in one H chain only; also called He Ab T335_12R; T335R
B20: GpH7-B3 variant I332_04F/GpL16-k0 (antibody, human IgG1, kappa)
heavy: not shown
light: B1 light
notes: homodimerized; mutation in both H chains; also called Ho Ab I332_04F
B21: GpH7-B3 variant K326_10E/GpL16-k0 (antibody, human IgG1, kappa)
heavy: not shown
light: B1 light
notes: homodimerized; mutation in both H chains; also called Ho Ab K326_10E
B22: GpH7-B3 variant G237_04F/GpL16-k0 (antibody, human IgG1, kappa)
heavy: not shown
light: B1 light
notes: homodimerized; mutation in both H chains; also called Ho Ab G237_04F
B23: GpH7-A5/GpH7-B3 variant T335_05P/GpL16-k0 (antibody, human IgG1, kappa)
heavy 1: not shown
heavy 2: not shown
light: B1 light
notes: mutation in one H chain only; also called He Ab T335_05P; T335P
B24: GpH7-B3 variant H268_01G/GpL16-k0 (antibody, human IgG1, kappa)
heavy: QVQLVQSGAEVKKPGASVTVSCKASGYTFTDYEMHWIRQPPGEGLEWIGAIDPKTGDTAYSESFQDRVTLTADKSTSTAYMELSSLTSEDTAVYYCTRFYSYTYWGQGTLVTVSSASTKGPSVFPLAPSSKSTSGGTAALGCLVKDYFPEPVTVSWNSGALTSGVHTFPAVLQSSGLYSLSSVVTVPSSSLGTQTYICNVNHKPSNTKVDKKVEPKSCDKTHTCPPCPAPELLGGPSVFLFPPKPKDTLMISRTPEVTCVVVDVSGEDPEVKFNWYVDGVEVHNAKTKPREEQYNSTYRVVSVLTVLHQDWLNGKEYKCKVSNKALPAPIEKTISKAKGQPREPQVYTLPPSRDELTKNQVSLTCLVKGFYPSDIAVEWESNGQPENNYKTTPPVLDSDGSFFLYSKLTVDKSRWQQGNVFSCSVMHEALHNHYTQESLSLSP
light: B1 light
notes: homodimerized; mutation in both H chains; also called Ho Ab H268_01G
B25: GpH7-A5/GpH7-B3 variant Y300_12R/GpL16-k0 (antibody, human IgG1, kappa)
heavy 1: not shown
heavy 2: not shown
light: B1 light
notes: mutation in one H chain only; also called He Ab Y300_12R; Y300R
B26: GpH7-A5/GpH7-B3 variant T335_06M/GpL16-k0 (antibody, human IgG1, kappa)
heavy 1: not shown
heavy 2: not shown
light: B1 light
notes: mutation in one H chain only; also called He Ab T335_06M; T335M
B27: GpH7-B3 variant I332_10E/GpL16-k0 (antibody, human IgG1, kappa)
heavy: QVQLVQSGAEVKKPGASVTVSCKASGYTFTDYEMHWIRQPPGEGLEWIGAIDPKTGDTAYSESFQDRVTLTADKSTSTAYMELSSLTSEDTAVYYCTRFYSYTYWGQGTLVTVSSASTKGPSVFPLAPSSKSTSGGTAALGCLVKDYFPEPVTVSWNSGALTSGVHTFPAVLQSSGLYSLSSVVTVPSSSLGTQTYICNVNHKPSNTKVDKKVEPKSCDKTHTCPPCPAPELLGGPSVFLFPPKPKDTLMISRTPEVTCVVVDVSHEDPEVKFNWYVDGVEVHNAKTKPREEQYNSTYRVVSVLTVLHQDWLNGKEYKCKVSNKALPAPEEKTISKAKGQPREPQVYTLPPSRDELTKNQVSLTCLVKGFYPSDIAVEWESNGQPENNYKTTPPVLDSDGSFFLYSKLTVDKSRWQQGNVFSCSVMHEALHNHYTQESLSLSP
light: B1 light
notes: homodimerized; mutation in both H chains; also called Ho Ab I332_10E
B28: GpH7-B3 variant A327_09D/GpL16-k0 (antibody, human IgG1, kappa)
heavy: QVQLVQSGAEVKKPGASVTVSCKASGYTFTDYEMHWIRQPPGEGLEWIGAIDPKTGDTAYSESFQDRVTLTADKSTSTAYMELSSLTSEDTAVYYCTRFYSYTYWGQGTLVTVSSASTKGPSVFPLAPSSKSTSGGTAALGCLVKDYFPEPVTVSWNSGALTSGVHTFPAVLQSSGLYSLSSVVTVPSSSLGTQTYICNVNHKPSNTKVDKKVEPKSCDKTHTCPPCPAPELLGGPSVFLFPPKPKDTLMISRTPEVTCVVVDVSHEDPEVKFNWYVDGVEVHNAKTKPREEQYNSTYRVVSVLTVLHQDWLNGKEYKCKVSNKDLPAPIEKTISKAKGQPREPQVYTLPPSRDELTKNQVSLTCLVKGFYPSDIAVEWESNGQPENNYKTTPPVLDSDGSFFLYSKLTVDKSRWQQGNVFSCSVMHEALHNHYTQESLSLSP
light: B1 light
notes: homodimerized; mutation in both H chains; also called Ho Ab A327_09D

What was measured:
[1] = target: T2, FcγRIa extracellular domain with C-terminal His tag (human, UniProt P12314 16-292); assay: SPR Biacore, relative FcγRIa binding vs GpH7-A5/GpH7-B3/GpL16-k0
T2 construct: extracellular domain; also called FcgRI; CD64; not shown: His tag at the C terminus
T2 sequence (P12314 16-292): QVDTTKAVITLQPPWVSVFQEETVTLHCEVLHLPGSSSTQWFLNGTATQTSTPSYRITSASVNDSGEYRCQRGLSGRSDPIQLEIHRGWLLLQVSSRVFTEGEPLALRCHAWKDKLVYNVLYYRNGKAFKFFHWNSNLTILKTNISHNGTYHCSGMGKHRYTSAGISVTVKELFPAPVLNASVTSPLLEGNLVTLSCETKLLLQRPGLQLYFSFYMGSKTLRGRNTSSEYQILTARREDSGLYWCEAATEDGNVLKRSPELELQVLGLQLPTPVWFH

[2] = target: T1, FcγRIIb extracellular domain with …; assay: SPR (Biacore), captured antibody, FcγRIIb analyte; binding relative to GpH7-B3/GpL16-k0 = 100

| Binder | He/Con_1a [1] | Ho/Con_2b [2] |
| --- | --- | --- |
| B1 | 114 % of HeCon Ab (=100) | – |
| B2 | – | 170 % of control |
| B3 | – | 106 % of control |
| B4 | 106 % of HeCon Ab (=100) | – |
| B5 | – | 114 % of control |
| B6 | – | 177 % of control |
| B7 | – | 109 % of control |
| B8 | 105 % of HeCon Ab (=100) | – |
| B9 | 106 % of HeCon Ab (=100) | – |
| B10 | 105 % of HeCon Ab (=100) | – |
| B11 | 105 % of HeCon Ab (=100) | – |
| B12 | 115 % of HeCon Ab (=100) | – |
| B13 | – | 240 % of control |
| B14 | – | 184 % of control |
| B15 | – | 168 % of control |
| B16 | 105 % of HeCon Ab (=100) | – |
| B17 | 108 % of HeCon Ab (=100) | – |
| B18 | – | 182 % of control |
| B19 | 113 % of HeCon Ab (=100) | – |
| B20 | – | 117 % of control |
| B21 | – | 237 % of control |
| B22 | – | 140 % of control |
| B23 | 106 % of HeCon Ab (=100) | – |
| B24 | – | 158 % of control |
| B25 | 105 % of HeCon Ab (=100) | – |
| B26 | 107 % of HeCon Ab (=100) | – |
| B27 | – | 181 % of control |
| B28 | – | 175 % of control |
